In the supplement of paper PMC10567573:

B1: FBF1 (parent)
chain: YQRPQDSEDMWGDEDFTFGAYQPT

Variants of: B1
Experiment: protein stability index of a GFP-peptide fusion (GPS, HEK-293T) (PSI 1-6); higher = more stable
Details: c terminus: a fixed tail appended
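Also: lentivirally expressed fusions sorted by FACS into six bins by GFP to DsRed ratio, PSI derived from sequencing read proportions per bin multiplied by bin number.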

Variant	protein stability index
YQRPQDSEMMWGDEDFTFGAYQPT	1.55
YQRPQDSEEMWGDEDFTFGAYQPT	3.21
YQRPQDSENMWGDEDFTFGAYQPT	2.48
YQRPQDSEFMWGDEDFTFGAYQPT	1.92
YQRPQDSEQMWGDEDFTFGAYQPT	2.23
YQRPQDSEKMWGDEDFTFGAYQPT	2.01
YQRPQDSESMWGDEDFTFGAYQPT	2.11
YQRPQDSETMWGDEDFTFGAYQPT	2.59
YQRPQDSEYMWGDEDFTFGAYQPT	1.87
YQRPQDSEAMWGDEDFTFGAYQPT	2.17
YQRPQDSEGMWGDEDFTFGAYQPT	2.47
YQRPQDSEWMWGDEDFTFGAYQPT	2.01
YQRPQDSELMWGDEDFTFGAYQPT	1.44
YQRPQDSEVMWGDEDFTFGAYQPT	1.66
YQRPQDSECMWGDEDFTFGAYQPT	1.55
YQRPQDSEIMWGDEDFTFGAYQPT	2.13
YQRPQDSERMWGDEDFTFGAYQPT	2.34
YQRPQDSEHMWGDEDFTFGAYQPT	2.03
YQRPQDSEPMWGDEDFTFGAYQPT	2.02
YQRPQMSEDMWGDEDFTFGAYQPT	2.32
YQRPQVSEDMWGDEDFTFGAYQPT	2.12
YQRPQRSEDMWGDEDFTFGAYQPT	2.04
YQRPQASEDMWGDEDFTFGAYQPT	2.05
YQRPQCSEDMWGDEDFTFGAYQPT	2.06

Variant	protein stability index
YQRPQHSEDMWGDEDFTFGAYQPT	1.84
YQRPQYSEDMWGDEDFTFGAYQPT	2.06
YQRPQFSEDMWGDEDFTFGAYQPT	1.68
YQRPQSSEDMWGDEDFTFGAYQPT	2.24
YQRPQLSEDMWGDEDFTFGAYQPT	2.17
YQRPQQSEDMWGDEDFTFGAYQPT	2.26
YQRPQESEDMWGDEDFTFGAYQPT	2.59
YQRPQKSEDMWGDEDFTFGAYQPT	1.94
YQRPQTSEDMWGDEDFTFGAYQPT	2.53
YQRPQNSEDMWGDEDFTFGAYQPT	2.25
YQRPQPSEDMWGDEDFTFGAYQPT	2.3
YQRPQWSEDMWGDEDFTFGAYQPT	1.64
YQRPQISEDMWGDEDFTFGAYQPT	1.98
YQRPQGSEDMWGDEDFTFGAYQPT	1.77
YQRPQDSEDMWGDEQFTFGAYQPT	2.41
YQRPQDSEDMWGDEPFTFGAYQPT	2.45
YQRPQDSEDMWGDENFTFGAYQPT	2.13
YQRPQDSEDMWGDETFTFGAYQPT	2.43
YQRPQDSEDMWGDEEFTFGAYQPT	2.75
YQRPQDSEDMWGDEIFTFGAYQPT	2.11
YQRPQDSEDMWGDEMFTFGAYQPT	1.9
YQRPQDSEDMWGDEHFTFGAYQPT	2.05
YQRPQDSEDMWGDEFFTFGAYQPT	1.52
YQRPQDSEDMWGDEGFTFGAYQPT	2.13

Variant	protein stability index
YQRPQDSEDMWGDECFTFGAYQPT	1.77
YQRPQDSEDMWGDEKFTFGAYQPT	1.73
YQRPQDSEDMWGDEAFTFGAYQPT	2.31
YQRPQDSEDMWGDESFTFGAYQPT	2.16
YQRPQDSEDMWGDERFTFGAYQPT	2.15
YQRPQDSEDMWGDELFTFGAYQPT	2.04
YQRPQDSEDMCGDEDFTFGAYQPT	4.55
YQRPQDSEDMMGDEDFTFGAYQPT	4.13
YQRPQDSEDMRGDEDFTFGAYQPT	4.43
YQRPQDSEDMGGDEDFTFGAYQPT	4.67
YQRPQDSEDMQGDEDFTFGAYQPT	4.78
YQRPQDSEDMLGDEDFTFGAYQPT	4.13
YQRPQDSEDMFGDEDFTFGAYQPT	3.83
YQRPQDSEDMTGDEDFTFGAYQPT	4.33
YQRPQDSEDMPGDEDFTFGAYQPT	4.87
YQRPQDSEDMHGDEDFTFGAYQPT	4.54
YQRPQDSEDMNGDEDFTFGAYQPT	4.44
YQRPQDSEDMYGDEDFTFGAYQPT	3.74
YQRPQDSEDMIGDEDFTFGAYQPT	4.19
YQRPQDSEDMDGDEDFTFGAYQPT	4.54
YQRPQDSEDMSGDEDFTFGAYQPT	4.79
YQRPQDSEDMAGDEDFTFGAYQPT	4.45
YQRPQDSEDMVGDEDFTFGAYQPT	4.25
YQRPQDSEDMKGDEDFTFGAYQPT	4.27

Variant	protein stability index
YQRPQDSEDMEGDEDFTFGAYQPT	4.5
YQRPYDSEDMWGDEDFTFGAYQPT	2.57
YQRPQDGEDMWGDEDFTFGAYQPT	2.47
YQRPQDHEDMWGDEDFTFGAYQPT	2.58
YQRPQDVEDMWGDEDFTFGAYQPT	2.82
YQRPQDAEDMWGDEDFTFGAYQPT	2.68
YQRPQDIEDMWGDEDFTFGAYQPT	2.99
YQRPQDTEDMWGDEDFTFGAYQPT	2.35
YQRPQDNEDMWGDEDFTFGAYQPT	3.2
YQRPQDEEDMWGDEDFTFGAYQPT	3.29
YQRPQDWEDMWGDEDFTFGAYQPT	1.73
YQRPQDREDMWGDEDFTFGAYQPT	2.71
YQRPQDQEDMWGDEDFTFGAYQPT	2.9
YQRPQDFEDMWGDEDFTFGAYQPT	2.41
YQRPQDDEDMWGDEDFTFGAYQPT	3.68
YQRPQDMEDMWGDEDFTFGAYQPT	2.37
YQRPQDLEDMWGDEDFTFGAYQPT	2.87
YQRPQDKEDMWGDEDFTFGAYQPT	3.01
YQRPQDCEDMWGDEDFTFGAYQPT	2.34
YQRPQDYEDMWGDEDFTFGAYQPT	1.74
YQRPQDPEDMWGDEDFTFGAYQPT	3.13
YQRPQDSEDEWGDEDFTFGAYQPT	4.53
YQRPQDSEDYWGDEDFTFGAYQPT	3.11
YQRPQDSEDQWGDEDFTFGAYQPT	3.71

Variant	protein stability index
YQRPQDSEDFWGDEDFTFGAYQPT	1.86
YQRPQDSEDNWGDEDFTFGAYQPT	4.06
YQRPQDSEDCWGDEDFTFGAYQPT	3.23
YQRPQDSEDAWGDEDFTFGAYQPT	4.18
YQRPQDSEDPWGDEDFTFGAYQPT	3.34
YQRPQDSEDTWGDEDFTFGAYQPT	3.73
YQRPQDSEDRWGDEDFTFGAYQPT	3.66
YQRPQDSEDDWGDEDFTFGAYQPT	4.06
YQRPQDSEDGWGDEDFTFGAYQPT	3.96
YQRPQDSEDVWGDEDFTFGAYQPT	2.75
YQRPQDSEDIWGDEDFTFGAYQPT	2.39
YQRPQDSEDWWGDEDFTFGAYQPT	2.81
YQRPQDSEDHWGDEDFTFGAYQPT	3.47
YQRPQDSEDLWGDEDFTFGAYQPT	2.25
YQRPQDSEDKWGDEDFTFGAYQPT	3.72
YQRPQDSEDSWGDEDFTFGAYQPT	3.5
YQRPQDSEDMWGFEDFTFGAYQPT	2.18
YQRPQDSEDMWGTEDFTFGAYQPT	1.77
YQRPQDSEDMWGPEDFTFGAYQPT	1.73
YQRPQDSEDMWGYEDFTFGAYQPT	1.72
YQRPQDSEDMWGVEDFTFGAYQPT	1.8
YQRPQDSEDMWGHEDFTFGAYQPT	1.76
YQRPQDSEDMWGGEDFTFGAYQPT	2.28
YQRPQDSEDMWGMEDFTFGAYQPT	2.32

Variant	protein stability index
YQRPQDSEDMWGIEDFTFGAYQPT	2.13
YQRPQDSEDMWGQEDFTFGAYQPT	1.79
YQRPQDSEDMWGCEDFTFGAYQPT	1.74
YQRPQDSEDMWGWEDFTFGAYQPT	1.53
YQRPQDSEDMWGSEDFTFGAYQPT	1.85
YQRPQDSEDMWGAEDFTFGAYQPT	2.1
YQRPQDSEDMWGNEDFTFGAYQPT	2.07
YQRPQDSEDMWGREDFTFGAYQPT	2.89
YQRPQDSEDMWGKEDFTFGAYQPT	2.52
YQRPQDSEDMWGLEDFTFGAYQPT	2.45
YQRPQDSEDMWGEEDFTFGAYQPT	3.13
YQRPQDSEDMWADEDFTFGAYQPT	2.92
YQRPQDSEDMWIDEDFTFGAYQPT	2.43
YQRPQDSEDMWCDEDFTFGAYQPT	2.28
YQRPQDSEDMWRDEDFTFGAYQPT	2.96
YQRPQDSEDMWSDEDFTFGAYQPT	3.13
YQRPQDSEDMWMDEDFTFGAYQPT	3.12
YQRPQDSEDMWHDEDFTFGAYQPT	2.85
YQRPQDSEDMWKDEDFTFGAYQPT	2.37
YQRPQDSEDMWTDEDFTFGAYQPT	2.55
YQRPQDSEDMWWDEDFTFGAYQPT	2.71
YQRPQDSEDMWPDEDFTFGAYQPT	3.79
YQRPQDSEDMWLDEDFTFGAYQPT	2.28
YQRPQDSEDMWDDEDFTFGAYQPT	4.15

Variant	protein stability index
YQRPQDSEDMWYDEDFTFGAYQPT	2.55
YQRPQDSEDMWQDEDFTFGAYQPT	3.13
YQRPQDSEDMWNDEDFTFGAYQPT	3.17
YQRPQDSEDMWFDEDFTFGAYQPT	2.41
YQRPQDSEDMWVDEDFTFGAYQPT	2.48
YQRPQDSEDMWEDEDFTFGAYQPT	3.71
YQRPQDSEDMWGDKDFTFGAYQPT	1.46
YQRPQDSEDMWGDVDFTFGAYQPT	2.36
YQRPQDSEDMWGDNDFTFGAYQPT	1.8
YQRPQDSEDMWGDPDFTFGAYQPT	2.03
YQRPQDSEDMWGDMDFTFGAYQPT	1.26
YQRPQDSEDMWGDGDFTFGAYQPT	1.88
YQRPQDSEDMWGDYDFTFGAYQPT	2.27
YQRPQDSEDMWGDHDFTFGAYQPT	2.84
YQRPQDSEDMWGDIDFTFGAYQPT	1.82
YQRPQDSEDMWGDRDFTFGAYQPT	2.05
YQRPQDSEDMWGDDDFTFGAYQPT	2.58
YQRPQDSEDMWGDLDFTFGAYQPT	1.66
YQRPQDSEDMWGDADFTFGAYQPT	1.67
YQRPQDSEDMWGDSDFTFGAYQPT	2.43
YQRPQDSEDMWGDTDFTFGAYQPT	2.15
YQRPQDSEDMWGDWDFTFGAYQPT	2.21
YQRPQDSEDMWGDCDFTFGAYQPT	2.11
YQRPQDSEDMWGDQDFTFGAYQPT	1.94

Variant	protein stability index
YQRPQDSEDMWGDFDFTFGAYQPT	1.78
YQRPQDSDDMWGDEDFTFGAYQPT	2.47
YQRPQDSPDMWGDEDFTFGAYQPT	1.65
YQRPQDSTDMWGDEDFTFGAYQPT	2.29
YQRPQDSFDMWGDEDFTFGAYQPT	2.13
YQRPQDSKDMWGDEDFTFGAYQPT	1.78
YQRPQDSQDMWGDEDFTFGAYQPT	1.81
YQRPQDSSDMWGDEDFTFGAYQPT	2.32
YQRPQDSHDMWGDEDFTFGAYQPT	2.01
YQRPQDSLDMWGDEDFTFGAYQPT	2.1
YQRPQDSYDMWGDEDFTFGAYQPT	2.31
YQRPQDSCDMWGDEDFTFGAYQPT	1.99
YQRPQDSRDMWGDEDFTFGAYQPT	1.58
YQRPQDSMDMWGDEDFTFGAYQPT	2.42
YQRPQDSIDMWGDEDFTFGAYQPT	1.95
YQRPQDSGDMWGDEDFTFGAYQPT	1.98
YQRPQDSVDMWGDEDFTFGAYQPT	1.7
YQRPQDSNDMWGDEDFTFGAYQPT	2
YQRPQDSADMWGDEDFTFGAYQPT	1.9
YQRPQDSWDMWGDEDFTFGAYQPT	1.58
